Data from article PMC8140593, “Chemical synthesis of peptidoglycan mimetic–disaccharide-tetrapeptide conjugate and its hydrolysis by bacteriophage T5, RB43 and RB49 L-alanyl-D-glutamate peptidases” (PeerJ, 2021).

Assay: Solubility in water
Type: physicochemical

Structure (SMILES): CC(=O)N[C@H]1[C@H](O[C@H]2[C@H](O[C@H](C)C(=O)N[C@@H](C)C(=O)N[C@H](CCC(=O)N[C@@H](C)C(=O)N[C@H](C)C(=O)O)C(=O)O)[C@@H](NC(C)=O)C(O)O[C@@H]2CO)O[C@H](CO)[C@@H](O)[C@@H]1O (stereo partly drawn) [GMTP, N-acetylglucosaminyl-β(1-4)-N-acetylmuramoyl-l-alanyl-γ-d-glutamyl-l-alanyl-d-alanine]
- solubility in water: water soluble
